Assay results published in patent publication US20100242127.

Test system: 75 aa long oligopeptide with the correct sequence of amino acids 351-399 of the α2 subunit of the GABAA receptor

Sequence of recombinant p42 MAP Kinase (Erk2) (New England Biolabs) (P28482 2-360): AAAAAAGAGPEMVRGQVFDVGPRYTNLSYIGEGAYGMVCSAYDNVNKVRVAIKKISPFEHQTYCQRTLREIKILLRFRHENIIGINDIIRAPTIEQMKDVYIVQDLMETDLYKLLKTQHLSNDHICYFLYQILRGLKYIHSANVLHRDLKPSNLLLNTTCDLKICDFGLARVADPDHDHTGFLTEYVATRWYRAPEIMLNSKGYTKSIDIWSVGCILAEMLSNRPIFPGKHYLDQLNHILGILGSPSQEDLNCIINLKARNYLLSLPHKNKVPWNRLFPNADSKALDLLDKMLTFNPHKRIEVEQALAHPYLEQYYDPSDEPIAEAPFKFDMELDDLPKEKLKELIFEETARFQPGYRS

recombinant p42 MAP Kinase (Erk2) (New England Biolabs)
average share of total phosphorylation at each of the other nine Ser/Thr residues (in vitro kinase assay, ^32P incorporation): the other nine Ser/Thr residues are phosphorylated at an average of 4% each | incorporation of ^32P as a readout of phosphorylation (in vitro kinase assay): the construct with the wildtype sequence shows a much higher incorporation of ^32P than the second construct with the mutated T393 | share of total phosphorylation at T393 (in vitro kinase assay, ^32P incorporation): 63% of total phosphorylation occurs at the putative Erk2 site
